{"source": "paper PMC10193013", "about": "“Nonstructural N- and C-tails of Dbp2 confer the protein full helicase activities” (The Journal of Biological Chemistry, 2023)", "key": {"[1]": {"molecular_target": "T1, Dbp2 (full-length, Dbp2^1-546) (Saccharomyces cerevisiae, UniProt P24783, C168A/C206A/C219A)", "T1 construct": "full-length 1-546; E. coli C2566H; His6-MBP tag cleaved with TEV, SP ion exchange; the smFRET mutant C141/C373 carries a C-terminal His6 tag", "T1 sequence (P24783 whole entry C168A/C206A/C219A)": "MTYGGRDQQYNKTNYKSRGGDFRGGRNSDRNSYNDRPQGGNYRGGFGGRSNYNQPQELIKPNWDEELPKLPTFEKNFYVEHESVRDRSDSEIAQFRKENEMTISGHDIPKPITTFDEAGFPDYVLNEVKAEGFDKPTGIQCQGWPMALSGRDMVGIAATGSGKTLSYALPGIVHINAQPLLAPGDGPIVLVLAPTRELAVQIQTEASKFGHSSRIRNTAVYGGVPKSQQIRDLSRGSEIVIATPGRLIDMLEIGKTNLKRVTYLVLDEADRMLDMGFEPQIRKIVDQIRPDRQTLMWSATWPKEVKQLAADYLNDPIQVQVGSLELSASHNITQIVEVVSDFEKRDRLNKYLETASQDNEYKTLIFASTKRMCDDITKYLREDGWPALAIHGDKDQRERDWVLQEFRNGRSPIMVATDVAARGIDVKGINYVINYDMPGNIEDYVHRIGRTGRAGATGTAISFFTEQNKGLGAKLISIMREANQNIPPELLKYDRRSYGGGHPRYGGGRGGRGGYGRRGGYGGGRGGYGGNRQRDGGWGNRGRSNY", "type": "binding", "details": "labelled protein immobilised via C-terminal His-tag antibody; no RNA; MgCl2 2 mM, pH 7.5"}, "[2]": {"molecular_target": "T2, Dbp2 (full-length, Dbp2^1-546) (Saccharomyces cerevisiae, UniProt P24783)", "T2 construct": "full-length 1-546; E. coli C2566H; His6-MBP tag cleaved with TEV, SP ion exchange; the smFRET mutant C141/C373 carries a C-terminal His6 tag", "assay": "coupled spectrophotometric ATPase assay", "type": "biochemical", "details": "RNA-dependent: ssRNA R-S22 or RNA/DNA duplex R/D-D16; MgCl2 2 mM, ATP 1.5 mM, pH 7.5, 24 °C; turnover only"}, "[3]": {"molecular_target": "T3, Dbp2 (full-length, Dbp2^1-546) (Saccharomyces cerevisiae, UniProt P24783, R495A/R496A)", "T3 construct": "full-length 1-546; E. coli C2566H; His6-MBP tag cleaved with TEV, SP ion exchange; the smFRET mutant C141/C373 carries a C-terminal His6 tag", "T3 sequence (P24783 whole entry R495A/R496A)": "as the sequence (P24783 whole entry C168A/C206A/C219A) above, with A168C, A206C, A219C, R495A, R496A counted along it", "assay": "ATPase activity assay kit (free phosphate, […] nm)", "type": "biochemical", "details": "16 bp RNA/DNA duplex 0.75 μM; MgCl2 2 mM, ATP 1.5 mM, pH 7.5, 24 °C; turnover only"}, "MBP-Dbp2 1-52": {"molecular_target": "T4, MBP-Dbp2 1-52 (Saccharomyces cerevisiae, UniProt P24783 1-52)", "T4 sequence": "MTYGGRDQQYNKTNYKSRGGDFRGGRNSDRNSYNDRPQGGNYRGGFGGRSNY", "assay": "fluorescence anisotropy; Anisotropy: 25 mM Tris-HCl pH 7.5, 20 mM NaCl/30 mM KCl, 2 mM MgCl2, 1 mM DTT, 5 nM labelled nucleic acid, 25 C, 5 min; EMSA: 25 mM Tris-HCl pH 7.5, 30 mM KCl", "details": "protein: recombinant; tags: MBP fusion; label: 3' FAM; G4"}, "Dbp2 118-466": {"molecular_target": "Dbp2 118-466 (Saccharomyces cerevisiae, UniProt P24783 118-466)", "sequence (P24783 118-466)": "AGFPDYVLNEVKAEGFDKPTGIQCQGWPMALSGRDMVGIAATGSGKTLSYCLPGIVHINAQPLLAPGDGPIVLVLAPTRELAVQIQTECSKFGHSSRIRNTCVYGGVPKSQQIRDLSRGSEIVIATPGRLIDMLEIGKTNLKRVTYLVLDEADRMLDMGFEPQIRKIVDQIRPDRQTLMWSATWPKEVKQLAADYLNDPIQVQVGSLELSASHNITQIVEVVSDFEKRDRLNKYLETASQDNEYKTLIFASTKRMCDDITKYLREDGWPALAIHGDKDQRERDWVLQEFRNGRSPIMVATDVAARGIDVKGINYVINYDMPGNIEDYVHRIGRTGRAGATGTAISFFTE", "assay": "fluorescence anisotropy; Anisotropy: 25 mM Tris-HCl pH 7.5, 20 mM NaCl/30 mM KCl, 2 mM MgCl2, 1 mM DTT, 5 nM labelled nucleic acid, 25 C, 5 min; EMSA: 25 mM Tris-HCl pH 7.5, 30 mM KCl", "details": "protein: recombinant, label: 3' FAM"}, "MBP-Dbp2 497-546": {"molecular_target": "T5, MBP-Dbp2 497-546 (Saccharomyces cerevisiae, UniProt P24783 497-546)", "T5 chain": "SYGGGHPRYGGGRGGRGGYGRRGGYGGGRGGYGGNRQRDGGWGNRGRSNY", "assay": "fluorescence anisotropy; Anisotropy: 25 mM Tris-HCl pH 7.5, 20 mM NaCl/30 mM KCl, 2 mM MgCl2, 1 mM DTT, 5 nM labelled nucleic acid, 25 C, 5 min; EMSA: 25 mM Tris-HCl pH 7.5, 30 mM KCl", "details": "protein: recombinant; tags: MBP fusion; label: 3' FAM; G4"}, "Dbp2 1-514": {"molecular_target": "Dbp2 1-514 (Saccharomyces cerevisiae, UniProt P24783 1-514)", "sequence (P24783 1-514)": "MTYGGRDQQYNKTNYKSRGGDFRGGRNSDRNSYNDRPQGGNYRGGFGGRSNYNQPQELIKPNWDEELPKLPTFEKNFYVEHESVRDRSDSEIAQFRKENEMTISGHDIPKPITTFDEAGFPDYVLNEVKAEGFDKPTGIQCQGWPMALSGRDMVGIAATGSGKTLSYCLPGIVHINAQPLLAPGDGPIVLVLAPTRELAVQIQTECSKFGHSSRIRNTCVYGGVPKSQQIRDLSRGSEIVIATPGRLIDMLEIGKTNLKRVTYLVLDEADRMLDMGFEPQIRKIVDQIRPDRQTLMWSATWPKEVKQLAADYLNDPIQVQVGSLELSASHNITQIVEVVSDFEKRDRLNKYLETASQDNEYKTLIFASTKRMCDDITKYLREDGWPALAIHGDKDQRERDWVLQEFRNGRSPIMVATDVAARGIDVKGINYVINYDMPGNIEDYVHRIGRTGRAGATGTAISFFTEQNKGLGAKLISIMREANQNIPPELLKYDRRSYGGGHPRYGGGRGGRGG", "assay": "fluorescence anisotropy; Anisotropy: 25 mM Tris-HCl pH 7.5, 20 mM NaCl/30 mM KCl, 2 mM MgCl2, 1 mM DTT, 5 nM labelled nucleic acid, 25 C, 5 min; EMSA: 25 mM Tris-HCl pH 7.5, 30 mM KCl", "details": "protein: recombinant, tags: His6-MBP removed by TEV, label: 3' FAM"}, "Dbp2 1-530": {"molecular_target": "Dbp2 1-530 (Saccharomyces cerevisiae, UniProt P24783 1-530)", "assay": "fluorescence anisotropy; Anisotropy: 25 mM Tris-HCl pH 7.5, 20 mM NaCl/30 mM KCl, 2 mM MgCl2, 1 mM DTT, 5 nM labelled nucleic acid, 25 C, 5 min; EMSA: 25 mM Tris-HCl pH 7.5, 30 mM KCl", "details": "protein: recombinant, tags: His6-MBP removed by TEV, label: 3' FAM"}, "Dbp2 53-496": {"molecular_target": "Dbp2 53-496 (Saccharomyces cerevisiae, UniProt P24783 53-496)", "sequence (P24783 53-496)": "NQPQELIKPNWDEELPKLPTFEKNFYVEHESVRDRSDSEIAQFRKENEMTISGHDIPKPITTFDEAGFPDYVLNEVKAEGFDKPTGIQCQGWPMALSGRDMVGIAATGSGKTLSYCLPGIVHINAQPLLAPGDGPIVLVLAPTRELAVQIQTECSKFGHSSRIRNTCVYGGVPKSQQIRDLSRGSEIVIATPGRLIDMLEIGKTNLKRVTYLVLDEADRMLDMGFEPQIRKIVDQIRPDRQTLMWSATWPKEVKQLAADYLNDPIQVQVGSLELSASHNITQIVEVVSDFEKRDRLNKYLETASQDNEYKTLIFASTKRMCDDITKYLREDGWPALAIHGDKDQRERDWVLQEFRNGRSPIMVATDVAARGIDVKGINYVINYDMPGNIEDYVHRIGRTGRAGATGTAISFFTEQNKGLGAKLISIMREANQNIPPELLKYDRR", "assay": "fluorescence anisotropy; Anisotropy: 25 mM Tris-HCl pH 7.5, 20 mM NaCl/30 mM KCl, 2 mM MgCl2, 1 mM DTT, 5 nM labelled nucleic acid, 25 C, 5 min; EMSA: 25 mM Tris-HCl pH 7.5, 30 mM KCl", "details": "protein: recombinant, tags: His6-MBP removed by TEV, label: 3' FAM"}, "Dbp2 WT": {"molecular_target": "Dbp2 WT (Saccharomyces cerevisiae, UniProt P24783 1-546)", "sequence (P24783 whole entry)": "as the sequence (P24783 whole entry C168A/C206A/C219A) above, with A168C, A206C, A219C counted along it", "assay": "fluorescence anisotropy; Anisotropy: 25 mM Tris-HCl pH 7.5, 20 mM NaCl/30 mM KCl, 2 mM MgCl2, 1 mM DTT, 5 nM labelled nucleic acid, 25 C, 5 min; EMSA: 25 mM Tris-HCl pH 7.5, 30 mM KCl", "details": "protein: recombinant, tags: His6-MBP removed by TEV"}, "Dbp2 53-546": {"molecular_target": "Dbp2 53-546 (Saccharomyces cerevisiae, UniProt P24783 53-546)", "sequence (P24783 53-546)": "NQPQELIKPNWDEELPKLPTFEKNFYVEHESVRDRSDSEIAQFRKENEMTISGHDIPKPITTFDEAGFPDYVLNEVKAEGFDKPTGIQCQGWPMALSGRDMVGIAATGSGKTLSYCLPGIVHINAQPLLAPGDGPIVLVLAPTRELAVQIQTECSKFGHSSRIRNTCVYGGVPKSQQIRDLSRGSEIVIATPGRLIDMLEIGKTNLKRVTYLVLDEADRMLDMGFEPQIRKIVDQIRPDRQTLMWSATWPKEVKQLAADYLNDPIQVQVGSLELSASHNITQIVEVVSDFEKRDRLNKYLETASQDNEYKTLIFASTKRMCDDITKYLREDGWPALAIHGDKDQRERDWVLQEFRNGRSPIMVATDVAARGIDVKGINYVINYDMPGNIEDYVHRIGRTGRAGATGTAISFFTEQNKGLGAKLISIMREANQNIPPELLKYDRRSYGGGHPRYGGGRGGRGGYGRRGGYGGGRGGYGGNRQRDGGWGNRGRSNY", "assay": "fluorescence anisotropy; Anisotropy: 25 mM Tris-HCl pH 7.5, 20 mM NaCl/30 mM KCl, 2 mM MgCl2, 1 mM DTT, 5 nM labelled nucleic acid, 25 C, 5 min; EMSA: 25 mM Tris-HCl pH 7.5, 30 mM KCl", "details": "protein: recombinant; tags: His6-MBP removed by TEV; label: 3' FAM; G4"}, "Dbp2 1-524": {"molecular_target": "Dbp2 1-524 (Saccharomyces cerevisiae, UniProt P24783 1-524)", "assay": "fluorescence anisotropy; Anisotropy: 25 mM Tris-HCl pH 7.5, 20 mM NaCl/30 mM KCl, 2 mM MgCl2, 1 mM DTT, 5 nM labelled nucleic acid, 25 C, 5 min; EMSA: 25 mM Tris-HCl pH 7.5, 30 mM KCl", "details": "protein: recombinant, tags: His6-MBP removed by TEV, label: 3' FAM"}, "[4]": {"details": "label: 3' FAM on DNA strand, blunt"}}, "note": "Where “and” joins values, the source holds several entries; their conditions need not be identical. Equal values may be shown once."}
{"molecule": "Nc1ncnc2c1ncn2[C@@H]1O[C@H](COP(=O)(O)OP(=O)(O)O)[C@@H](O)[C@H]1O", "note": "[ADP]", "values": [{"measurement": "single-molecule FRET, Cy3/Cy5 on C141 and C373", "setting": "[1]", "result": "The FRET distribution of Dbp2-ADP was similar to that of Dbp2-ADP·AlF4 except for a decrease"}]}
{"molecule": "Nc1ncnc2c1ncn2[C@@H]1O[C@H](COP(=O)(O)OP(=O)(O)OP(=O)(O)O)[C@@H](O)[C@H]1O", "note": "[ATP]", "values": [{"measurement": "coupled spectrophotometric ATPase assay", "setting": "[2]", "result": "The RNA-dependent ATPase activities of Dbp2 were measured using a coupled spectrophotometric ATPase assay"}, {"measurement": "ATPase activity assay kit (free phosphate, 620 nm)", "setting": "[3]", "result": "the R495A/R496A double mutant also showed increased ATPase activity in vitro"}]}
{"molecule": "GGGUUAGGGUUAGGGUUAGGG (structured_RNA)", "note": "[R-G4Tel]", "values": [{"measurement": "Kd", "setting": "MBP-Dbp2 1-52", "result": "26 ± 1.5", "unit": "nM"}, {"measurement": "binding result", "setting": "Dbp2 118-466; G4", "result": "no binding"}, {"measurement": "Kd", "setting": "MBP-Dbp2 497-546", "result": "36.3 ± 5.1", "unit": "nM"}, {"measurement": "Kd", "setting": "Dbp2 1-514; G4", "result": "63.5 ± 8.45", "unit": "nM"}, {"measurement": "Kd", "setting": "Dbp2 1-530; G4", "result": "19.2 ± 2.17", "unit": "nM"}, {"measurement": "binding result", "setting": "Dbp2 53-496; G4", "result": "no binding"}, {"measurement": "Kd", "setting": "Dbp2 WT; label: 3' FAM, G4", "result": "12.2 nM and 12.7 nM"}, {"measurement": "Kd", "setting": "Dbp2 53-546", "result": "18.8 ± 0.56", "unit": "nM"}, {"measurement": "Kd", "setting": "Dbp2 1-524; G4", "result": "27.9 ± 2.66", "unit": "nM"}]}
{"molecule": "UUUUUUUUUUCUCUGCUCGACG (ssRNA)", "note": "[R-S22]", "values": [{"measurement": "binding result", "setting": "Dbp2 118-466", "result": "no binding"}, {"measurement": "Kd", "setting": "Dbp2 1-514", "result": "214 ± 18.4", "unit": "nM"}, {"measurement": "Kd", "setting": "Dbp2 1-530", "result": "33.7 ± 6.63", "unit": "nM"}, {"measurement": "binding result", "setting": "Dbp2 53-496", "result": "no binding"}, {"measurement": "Kd", "setting": "Dbp2 WT; label: 3' FAM", "result": "15.8 ± 0.66", "unit": "nM"}, {"measurement": "Kd", "setting": "Dbp2 1-524", "result": "38.8 ± 4.35", "unit": "nM"}]}
{"molecule": "R/D-D16 (DNA:RNA) RNA: GAUCGUGACAUCCUUA DNA: TAAGGATGTCACGATC", "values": [{"measurement": "Kd", "setting": "Dbp2 WT; [4]", "result": "40.6 ± 4.65", "unit": "nM"}]}
{"molecule": "R/D-D12 (DNA:RNA) RNA: CGUCGAGCAGAG DNA: CTCTGCTCGACG", "values": [{"measurement": "Kd", "setting": "Dbp2 WT; [4]", "result": "73.9 ± 3.93", "unit": "nM"}]}
{"molecule": "CUCUGCUCGACG (ssRNA)", "note": "[R-S12]", "values": [{"measurement": "Kd", "setting": "Dbp2 WT; label: 3' FAM", "result": "72.1 ± 5.09", "unit": "nM"}]}
{"molecule": "ACGGATGTCTAA (ssDNA)", "note": "[D-S12]", "values": [{"measurement": "Kd", "setting": "Dbp2 WT; label: 3' FAM", "result": "105 ± 1.9", "unit": "nM"}]}
{"molecule": "D-D12 (dsDNA) DNA 1: CGTCGAGCAGAG DNA 2: CTCTGCTCGACG", "values": [{"measurement": "Kd", "setting": "Dbp2 WT; label: 3' FAM on strand 2, blunt", "result": "178 ± 6.2", "unit": "nM"}]}
